Data on 5 substances can be found in paper PMC6212828.

Bounds are passed on as bounds.

Series [1] has as its system Fur (Bacillus subtilis). The series can be described thus: EMSA. To be noted: EMSA with 1 mM MnCl2; ~1 fmol 32P-labelled probe (B, C) or ~180 ng DNA with ethidium bromide stain, 5% native PAGE (A); remaining buffer, pH and temperature ….
Series [2] addresses T1, Fur (Bacillus subtilis) (UniProt P54574).
T1 sequence: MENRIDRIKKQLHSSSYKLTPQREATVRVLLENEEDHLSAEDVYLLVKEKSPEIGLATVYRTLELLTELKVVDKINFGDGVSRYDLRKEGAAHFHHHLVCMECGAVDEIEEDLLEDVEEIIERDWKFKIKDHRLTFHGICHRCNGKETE
The series can be described thus: EMSA. The settings on record: EMSA with 1 mM MnCl2; ~1 fmol 32P-labelled probe (B, C) or ~180 ng DNA with ethidium bromide stain, 5% native PAGE (A); remaining buffer, pH and temperature …. On the technique in general: Mobility shift assays separate free from complexed probe on a gel.

The term Kd denotes the concentration at which binding is half-saturated. Read a high Kd as a looser complex. As to catD promoter probe (-121 to +76), in the series on Fur (Bacillus subtilis) [1], the Kd stood at 700 nM. In the series on Fur (Bacillus subtilis) [1], catD ORF probe (+137 to +278) came in with a binding of more than 2 µM. “catD promoter 323-bp HindIII fragment (-155 to +168)” displayed a K half in the series on Fur (Bacillus subtilis) [1] of 500 nM. In the series with Fur (Bacillus subtilis) [2], “TAGACCTTTGTCCTGCACAGAGGTCTTTTTTTGTTACAGTTTTATAGTACTTTTATTTCATTTTCGTAAAATGTAACAAAATTACTTGACGTAAACAAGTTATGTATATATACTAGCTTACATTAAGTAAGTGATAACATTTATCAAGGAGGATAAAATGAATAAATCATTTGAAATTGGCACATTACTTTTAAGAG (double strand) [catD promoter probe (-121 to +76)]” registered a Kd of 700 nM. For the substance “catD ORF 218-bp HindIII fragment (+169 to +386)”, in the series on Fur (Bacillus subtilis) [1], the binding is more than 3 µM.
